Measured values: patent US20190048038A1, “METHOD FOR GENERATING CELL-PENETRATING STAPLED PEPTIDES THAT LACK NONSPECIFIC MEMBRANE-LYTIC PROPERTIES FOR THERAPEUTIC TARGETING” (Dana-Farber Cancer Institute, Inc., priority 2016, published 2019)
Positions of bridges follow the written chain, without caps; N, C: chain ends. Non-standard residues stand in square brackets, D forms with d. Residues, ends and D or L forms follow the SMILES beside them. No end group written: not given here. *: point of attachment. FITC = O=C1OC2(c3ccc(O)cc3Oc3cc(O)ccc32)c2ccc(NC(=S)*)cc21; R8 = C=CCCCCCC[C@@](C)(N)C(=O)O; Cba = N[C@@H](CC1CCC1)C(=O)O; S5 = C=CCCC[C@](C)(N)C(=O)O; βAla = NCCC(=O)O

Experiments:
[1] = test system: mouse embryonic fibroblasts (MEFs); assay: ImageXpress microscopy cellular uptake of FITC-peptides (TIFI); format: cell-based; conditions: MEFs 2×10^4 cells/well, 500 nM FITC-peptide, 4 h, 0% FBS, per cell basis
Description: The cellular penetrance of a peptide of interest can be assessed by any method known in the art. For example, ImageXpress microscopy analysis may be employed as described in Example 1. The total internalized FITC intensity (TIFI) can be used as a way to determine cellular uptake of a hydrocarbon-stapled and/or stitched peptide by a cell (e.g., any cell described herein). Methods of determining TIFI are described in detail in Examples 2 and 3 of the instant specification. Briefly, a custom module (CM) was created to develop a rigorous quantitation platform for measuring cellular uptake of hydrocarbon-stapled and/or stitched peptides derivatized with a FITC fluorophore at the N-terminus. The CM was developed based on (1) defining the parameters of cellular uptake (e.g., excluding extracellular aggregates and auto-fluorescent debris), (2) defining a pixel boundary to avoid quantitation of extracellular, membrane-adherent peptides, (3) excluding out-of-focus fluorescence from the FITC signal outliers. Once the CM parameters are set, images can be acquired at 20× and 40× magnification for per cell basis fluorescence, and four distinct central locations of the cellular field are visualized. Next signal-to-noise ratios are maximized to ensure optimal sensitivity and specificity of internal FITC-peptide signal. […]

[2] = test system: BCL-XL-reconstituted p185^+Arf^−/−Mcl-1^del B-ALL cells; assay: LDH release assay (membrane lysis) in B-ALL cells; conditions: 10 μM peptide, 30 min, serum-free
Description: Data are normalized based on the response to treatment with 1% Triton X-100 (100% release) and media alone (0% LDH release). Error bars are mean±s.d. for experiments performed in technical duplicate and repeated twice.
B-ALL and Jurkat T cells were plated in 96-well format (2×10^4 cells per well) in serum-free RPMI. […] The plate was centrifuged at 1500 rpm for 5 min at 4° C., and 80 μL of cell culture media was transferred to a clear plate (Corning), incubated with 80 μL of LDH reagent (Roche) for 15 min while shaking, and absorbance measured at 490 nm on a microplate reader (SpectraMax M5 Microplate Reader, Molecular Devices).
In order to identify compounds whose cytotoxicity correlates with the capacity for cellular uptake and intracellular target engagement, it is important to rule out nonspecific cytotoxicity due to potential plasma membrane lysis.

BCL-XLΔC [3] = molecular target: T1, BCL-XLΔC (Homo sapiens, UniProt Q07817); assay: IC50 (nM); design: BCL-XL ΔC was expressed as a glutathione-S-transferase (GST) fusion protein; GST (N, cleaved yes); made in house; host or cells: Escherichia coli BL21 (DE3), pGEX2T vector
Description: Table printed on a drawing sheet, FIG. 4B
Head of the field: IC50 (nM)
First copying reader's note: The table is the legend of a binding plot (mP vs [BCL-XL ΔC], M); plot marker symbols before each sequence are left out, and some mutated residues are printed inside a box.

BCL-XLΔC [4] = molecular target: T1, BCL-XLΔC; assay: fluorescence polarization
Target sequence in this assay (Q07817 1-212, stated change not applied): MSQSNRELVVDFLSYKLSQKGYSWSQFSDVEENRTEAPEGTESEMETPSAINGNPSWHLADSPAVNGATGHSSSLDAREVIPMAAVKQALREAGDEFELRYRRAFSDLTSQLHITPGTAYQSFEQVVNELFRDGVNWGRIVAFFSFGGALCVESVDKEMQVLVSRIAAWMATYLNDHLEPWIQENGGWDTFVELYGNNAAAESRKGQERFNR

[5] = Percent α-helicity by circular dichroism; format: physicochemical; conditions: 222 nm
Description: FIG. 19 is a table showing the sequence composition and biophysical parameters of a BIM BH3 staple scanning library. Hydrophobicity was calculated using techniques generally known in the art^39, with “X” assigned the hydrophobicity value of Leu. Retention time in minutes reflects the peptide elution time from an HPLC C18 column (Agilent, 1200) run for 20 minutes using a 5-95% water: acetonitrile gradient (10 mM ammonium carbonate). Percent α-helicity of stapled peptides (50 μM, 10% acetonitrile in water) was derived from circular dichroism spectra using the mdeg value at 222 nm, as described^34. Net charge was calculated by summing the positive and negative charges of Arg and Asp/Glu, respectively. The isoelectric point (pI) calculation employed the EMBOSS values for pKa.
The alpha-helicity of a peptide of interest can be determined by any method known in the art. In some cases, circular dichroism or nuclear magnetic resonance spectroscopy (NMR) may be employed. Peptides are dissolved in an aqueous solution (e.g., 5 mM potassium phosphate solution at pH 7, or distilled H2O, to concentrations of 25-50 μM). […] The α-helical content of each peptide is calculated by dividing the mean residue ellipticity by the reported value for a model helical decapeptide (Yang et al., Methods Enzymol. 130:208 (1986)). […]

SAOS-2 cells = assay: Epifluorescence (IXM) microscopy cellular penetrance of ATSP-7041; format: cell-based
Description: Error bars represent mean±s.d.
Images were acquired by IXM.

cells = conditions: 20 μM peptide
Description: Data are normalized based on the response to treatment with 1% Triton X-100 (100% release) and media alone (0% LDH release). Error bars are mean±s.d.

**Q.** With `CC[C@H](C)[C@H](NC(=O)CCNC(=S)Nc1ccc2c(c1)C(=O)OC21c2ccc(O)cc2Oc2cc(O)ccc21)C(=O)N[C@@H](Cc1c[nH]c2ccccc12)C(=O)N[C@H](C(=O)N[C@@H](C)C(=O)N[C@@H](CCC(N)=O)C(=O)N[C@@H](CCC(=O)O)C(=O)N[C@@H](CC(C)C)C(=O)N[C@@H](CCCNC(=N)N)C(=O)N[C@@]1(C)CCCC=CCCC[C@@](C)(C(=O)N[C@@H](Cc2ccccc2)C(=O)N[C@@H](CC(N)=O)C(=O)N[C@@H](CCC(=O)O)C(=O)N[C@@H](Cc2ccc(O)cc2)C(=O)N[C@@H](Cc2ccc(O)cc2)C(=O)N[C@@H](C)C(=O)N[C@@H](CCCNC(=N)N)C(=O)N[C@@H](CCCNC(=N)N)C(N)=O)NC(=O)[C@H](CC(=O)O)NC(=O)CNC(=O)[C@H]([C@@H](C)CC)NC1=O)[C@@H](C)CC` [A161E, IWIAQELRXIGDXFNEYYARR] as the compound, how does the “total internalized FITC intensity (TIFI), cellular uptake” value [1] read?
**A.** retention of high level TIFI

**Q.** With `CC[C@H](C)[C@H](NC(=O)CCNC(=S)Nc1ccc2c(c1)C(=O)OC21c2ccc(O)cc2Oc2cc(O)ccc21)C(=O)N[C@@H](Cc1c[nH]c2ccccc12)C(=O)N[C@H](C(=O)N[C@@H](C)C(=O)N[C@@H](CCC(N)=O)C(=O)N[C@@H](CCC(=O)O)C(=O)N[C@@H](CC(C)C)C(=O)N[C@@H](CCCNC(=N)N)C(=O)N[C@@]1(C)CCCC=CCCC[C@@](C)(C(=O)N[C@@H](Cc2ccccc2)C(=O)N[C@@H](CC(N)=O)C(=O)N[C@@H](C)C(=O)N[C@@H](Cc2ccc(O)cc2)C(=O)N[C@@H](Cc2ccc(O)cc2)C(=O)N[C@H](C(=O)N[C@@H](CCCNC(=N)N)C(=O)N[C@@H](CCCNC(=N)N)C(N)=O)[C@@H](C)O)NC(=O)[C@H](CC(=O)O)NC(=O)CNC(=O)[C@H]([C@@H](C)CC)NC1=O)[C@@H](C)CC` [A164T, IWIAQELRXIGDXFNAYYTRR] as the compound, how does the “LDH release, membrane lytic activity” value [2] read?
**A.** promote lysis

**Q.** For `CC[C@H](C)[C@H](NC(=O)CCNC(=S)Nc1ccc2c(c1)C(=O)OC21c2ccc(O)cc2Oc2cc(O)ccc21)C(=O)N[C@@H](Cc1c[nH]c2ccccc12)C(=O)N[C@H](C(=O)N[C@@H](C)C(=O)N[C@@H](CCC(N)=O)C(=O)N[C@@H](CCC(=O)O)C(=O)N[C@@H](CC(C)C)C(=O)N[C@@H](CCCNC(=N)N)C(=O)N[C@@]1(C)CCCC=CCCC[C@@](C)(C(=O)N[C@@H](Cc2ccccc2)C(=O)N[C@@H](CC(N)=O)C(=O)N[C@@H](C)C(=O)N[C@@H](Cc2ccc(O)cc2)C(=O)N[C@@H](Cc2ccc(O)cc2)C(=O)N[C@@H](C)C(=O)N[C@@H](CCCNC(=N)N)C(=O)N[C@@H](CCCNC(=N)N)C(N)=O)NC(=O)[C@H](CC(C)C)NC(=O)CNC(=O)[C@H]([C@@H](C)CC)NC1=O)[C@@H](C)CC` [IWIAQELRXIGLXFNAYYARR] ({FITC-βAla}-IWIAQELR[S5]IGL[S5]FNAYYARR-NH2; staple 9-13), which IC50 (BCL-XLΔC [3]) is on record?
**A.** > 1000 nM

**Q.** With `CC[C@H](C)[C@H](NC(=O)CCNC(=S)Nc1ccc2c(c1)C(=O)OC21c2ccc(O)cc2Oc2cc(O)ccc21)C(=O)N[C@@H](CCCNC(=N)N)C(=O)N[C@H](C(=O)N[C@@H](C)C(=O)N[C@@H](CCC(N)=O)C(=O)N[C@@H](CCC(=O)O)C(=O)N[C@@H](CC(C)C)C(=O)N[C@@H](CCCNC(=N)N)C(=O)N[C@@]1(C)CCCC=CCCC[C@@](C)(C(=O)N[C@@H](Cc2ccccc2)C(=O)N[C@@H](CC(N)=O)C(=O)N[C@@H](C)C(=O)N[C@@H](Cc2ccc(O)cc2)C(=O)N[C@@H](Cc2ccc(O)cc2)C(=O)N[C@@H](C)C(=O)N[C@@H](CCCNC(=N)N)C(=O)N[C@@H](CCCNC(=N)N)C(N)=O)NC(=O)[C@H](CC(=O)O)NC(=O)CNC(=O)[C@H]([C@@H](C)CC)NC1=O)[C@@H](C)CC` [W147R, IRIAQELRXIGDXFNAYYARR] as the compound, how does the “LDH release, membrane lytic activity” value [2] read?
**A.** promote lysis

**Q.** Which IC50 (BCL-XLΔC [4]) does the source give for BIM SAHBA1 here?
**A.** 13.8 nM

**Q.** Which IC50 (BCL-XLΔC [4]) does the source give for IWIALELRXIGDXFNAYYARR here?
**A.** > 1000 nM

**Q.** For IWIAQELRXIGDXFNAIYARR, which IC50 (BCL-XLΔC [4]) is on record?
**A.** 59.4 nM

**Q.** Which IC50 (BCL-XLΔC [4]) does the source give for IWIAQELRXIGDXFNAYYIRR here?
**A.** 45.7 nM

**Q.** For IWIAQLLRXIGDXFNAYYARR, which IC50 (BCL-XLΔC [4]) is on record?
**A.** > 1000 nM

**Q.** For “LTFZEYWANCbXSAA (LTF[R8]EYWAN[Cba][S5]SAA; staple 4-11) [ATSP-7041]”, which α-helicity [5] is on record?
**A.** 70%

**Q.** And the “cellular penetrance (TIFI value)” value (SAOS-2 cells)?
**A.** effective cellular penetrance

**Q.** And the “nonspecific membrane lytic properties (LDH release)” value (cells)?
**A.** lacks nonspecific membrane lytic properties
